Measurements reported in article PMC11735773.

Target: SARS-CoV-2 nucleoprotein (NP) (SARS-CoV-2, UniProt P0DTC9 1-419)

GGGGGGGGGGGG (structured_RNA, phosphorothioate linkages) [TAMRA-G12(S)]
binding result: binds
